Experimental data published in paper PMC10357448.

Assay: In vitro trypsin digestion, SDS-PAGE densitometry
Settings: glycan changed form; control: WT (HEK293), one N-glycan

B1: Interleukin-4 (IL-4): WT (P. pastoris) (protein)
parent chain: MGLTSQLLPPLFFLLACAGNFVHGHKCDITLQEIIKTLNSLTEQKTLCTELTVTDIFAASKNTTEKETFCRAATVLRQFYSHHEKDTRCLGATAQQFHRHKQLIRFLKRLDRNLWGLAGLNSCPVKEANQSTLENFLERLKTIMREKYSKCSS
degradation_or_half_life, half_life: decreases, 2.6 ± 0.2 vs 4.9 ± 0.7
